Test results: the supplement of paper PMC9170038

Test system: MS2 coat protein
Assay: apparent KD of MS2 coat protein; higher = weaker reporter binding
Settings: Eterna round: R107
Summary of the method: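 Illumina sequencing clusters served as templates for on-chip transcription of the designed RNA switches. SNAP-549-labelled MS2 coat protein was then titrated in twofold steps from 0.7 or 1.5 nM to 3 µM, allowing 0.8–1.5 h per step at first and 10–20 min per step later. The buffer held 100 mM Tris-HCl pH 7.5, 80 mM KCl and 4 mM MgCl2, without or with constant ligand. Apparent KD is the median per design of normalised cluster binding-curve fits.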

[1] = input ligand: theophylline 20 uM
[2] = input ligand: theophylline 2 mM
[3] = input ligand: tryptophan 2.4 mM

CGUCGAAACUGAAGGAGCGAGAUGACAACAUUGGGUCUAACAUGAGGAUCACCCAUGUAAUCUCAGGUAGGUCGCGGUGACAACA [Exclusion Arginine B GF 17]
apparent KD of MS2 coat protein (input ligand: arginine 13.2 mM): 40.1 nM
apparent KD of MS2 coat protein (input ligand: none): 38.9 nM
apparent KD of MS2 coat protein [1]: 48.5 nM
apparent KD of MS2 coat protein [2]: 59.6 nM
apparent KD of MS2 coat protein [3]: 51.7 nM

AGCAUGUUAUCAGAUACCAGACAUCUUUUAAUACAUAUUACAUGAGGAUCACCCAUGUUGGUCCCUUGGCAGCUGAAAUAUUUCA [JR_Nu_SSTheophyB_Sub023]
apparent KD of MS2 coat protein (input ligand: arginine 13.2 mM): 124 nM
apparent KD of MS2 coat protein [1]: 223 nM
apparent KD of MS2 coat protein [3]: 360 nM

UGUAACAUGAGGAUCACCCAUGUGAGUGAUACCAGAUUAGUAUUAGUCCCUUGGCAGCACGUUGGGCGAGUGUAUAGUCUAUGCG [Same State - Theophylline A (Freestyle 13)]
apparent KD of MS2 coat protein (input ligand: arginine 13.2 mM): 90.9 nM
apparent KD of MS2 coat protein [1]: 162 nM

AUCAUGGCCAUCGAUACCAGCUACAUGAGGAUCACCCAUGUAAACGGCCCGGUGAGAUGUAGCCCUUGGCAGCGAAGGGUCGAGG [Inenenatti]
apparent KD of MS2 coat protein (input ligand: arginine 13.2 mM): 14 nM
apparent KD of MS2 coat protein (input ligand: none): 18.6 nM
apparent KD of MS2 coat protein [1]: 24.3 nM
apparent KD of MS2 coat protein [2]: 72.3 nM
apparent KD of MS2 coat protein [3]: 14.6 nM

UGCUACAUGAGGAUCACCCAUGUGGGUGAUACCAGCAUUCGUUAAUGCCCUUGGCAGCGCAGCCGAACCAUUCAUUCGGCAGAUC [Laxeor]
apparent KD of MS2 coat protein (input ligand: arginine 13.2 mM): 36.2 nM
apparent KD of MS2 coat protein (input ligand: none): 125 nM
apparent KD of MS2 coat protein [1]: 214 nM
apparent KD of MS2 coat protein [2]: 382 nM
apparent KD of MS2 coat protein [3]: 328 nM

AACAUGAGGAUCACCCAUGUGUCCUCGAAACGAGGACCGGUACGGCCGCCACUCGAAAGGUGUUGACGAAAAGUCAGCACCAAAA [Mat - Exclusion - Trytophan A - D15]
apparent KD of MS2 coat protein (input ligand: arginine 13.2 mM): 122 nM
apparent KD of MS2 coat protein [1]: 351 nM
apparent KD of MS2 coat protein [2]: 412 nM

UUCGUUUGCGGAAGGAGCGACGGACAUCGGUGACCCACGCACAUGAGGAUCACCCAUGUACGUCAGGUAGGUCGCCGCUAAGAGU [XArg-B4]
apparent KD of MS2 coat protein (input ligand: arginine 13.2 mM): 20.3 nM
apparent KD of MS2 coat protein (input ligand: none): 17.4 nM
apparent KD of MS2 coat protein [1]: 47.4 nM
apparent KD of MS2 coat protein [2]: 41.3 nM
apparent KD of MS2 coat protein [3]: 12.4 nM

AUACAUGAGGAUCACCCAUGUUAUAGUGAAGGAGCGACAUUUAGGUCAGGUAGGUCGCACUAUAGUAUUAUAAUUCUUAGUUCUU [JR_ExcArginiA_Sub018]
apparent KD of MS2 coat protein (input ligand: arginine 13.2 mM): 14.7 nM
apparent KD of MS2 coat protein (input ligand: none): 18.4 nM
apparent KD of MS2 coat protein [1]: 27.9 nM
apparent KD of MS2 coat protein [2]: 21.8 nM
apparent KD of MS2 coat protein [3]: 22 nM

GCCGGGCCUUCGGCCGCCACUGAGAGAGUCGUGUGAACAUGAGGAUCACCCAUGUAAUAUAUAUACAGGACCGGGAGGGCCCGGC [4.V]
apparent KD of MS2 coat protein (input ligand: arginine 13.2 mM): 12.6 nM
apparent KD of MS2 coat protein (input ligand: none): 16.3 nM
apparent KD of MS2 coat protein [1]: 17.8 nM
apparent KD of MS2 coat protein [2]: 14.9 nM
apparent KD of MS2 coat protein [3]: 10.4 nM

UCGCUCUGGGUGAAUUCCGGAGAUGUGGAAGGAGCGGACGAAAGUCCAGGUAGGUCGCCAUCGGACAUGAGGAUCACCCAUGUAC [Same State - Arginine A (Freestyle 22)]
apparent KD of MS2 coat protein (input ligand: arginine 13.2 mM): 55.6 nM
apparent KD of MS2 coat protein (input ligand: none): 122 nM
apparent KD of MS2 coat protein [1]: 99.8 nM
apparent KD of MS2 coat protein [2]: 100 nM
apparent KD of MS2 coat protein [3]: 89.9 nM

AGACAUGAGGAUCACCCAUGUAGUACGGAUACCAGAUCCAGAUGUAUCCCUUGGCAGCUGUGGUACAGCGUUGCAACGCUCCUAG [Exclusion - Theophylline A (Freestyle 18)]
apparent KD of MS2 coat protein (input ligand: arginine 13.2 mM): 15 nM
apparent KD of MS2 coat protein [1]: 23.9 nM
apparent KD of MS2 coat protein [3]: 15.2 nM

UAGACGGCCGGAAGGAGCGGUACAUGAGGAUCACCCAUGUAUCUCUGGGCAUCCGUAGAGUGCCAGGUAGGUCGCCGGUUGCGGG [XArg-B22]
apparent KD of MS2 coat protein (input ligand: arginine 13.2 mM): 12.3 nM
apparent KD of MS2 coat protein (input ligand: none): 11 nM
apparent KD of MS2 coat protein [1]: 13.8 nM
apparent KD of MS2 coat protein [2]: 11.5 nM
apparent KD of MS2 coat protein [3]: 11.4 nM

ACAUGAGGGCGAAGGAGCGCGUACAUGAGGAUCACCCAUGUCUAUAUCCGUCCGCGUGUAACGCAGGUAGGUCGCGCUGUUAAUU [#14 Exclusion - Arginine B]
apparent KD of MS2 coat protein (input ligand: arginine 13.2 mM): 15.4 nM
apparent KD of MS2 coat protein (input ligand: none): 16 nM
apparent KD of MS2 coat protein [1]: 21.6 nM
apparent KD of MS2 coat protein [2]: 20 nM
apparent KD of MS2 coat protein [3]: 16.2 nM

CUACAUUUGUAGAAACCGGUCAACAUUAUUCGAGGACCGGUACGGCCGCCACUCGUAUAAUUUAAUACAUGAGGAUCACCCAUGU [Tryptophan A 5]
apparent KD of MS2 coat protein (input ligand: arginine 13.2 mM): 16.1 nM
apparent KD of MS2 coat protein [1]: 17.3 nM
apparent KD of MS2 coat protein [2]: 16.9 nM

ACGAACGAUAGUGAUACCAGACGUACAUGAGGAUCACCCAUGUUGUAAACAUGGUUAAUAGUCCCUUGGCAGCACGAUAAGUUCG [JR_ExcTheophyB_Sub003]
apparent KD of MS2 coat protein (input ligand: arginine 13.2 mM): 104 nM
apparent KD of MS2 coat protein [1]: 530 nM
apparent KD of MS2 coat protein [3]: 802 nM

AAACUGAUCUUCAGGAGUCACUAUAUCUCCCGAGGACCGGUACGGCCGCCACUCGAACGUUUACAUGAGGAUCACCCAUGUGACU [theeternabot_exclusion_MS2_Trp_A_4]
apparent KD of MS2 coat protein (input ligand: arginine 13.2 mM): 13.6 nM
apparent KD of MS2 coat protein [1]: 16.4 nM
apparent KD of MS2 coat protein [2]: 14.9 nM

UCGCAUUGCUGCGAUACCAGACAUGAGGAUCACCCAUGUACCAAGGUACGAAAAUAACAUGUCCCUUGGCAGCGCAGCAAUGCGU [MAT - Exclusion Theophlline B - Mod of Eli - D5]
apparent KD of MS2 coat protein (input ligand: arginine 13.2 mM): 11.9 nM
apparent KD of MS2 coat protein [1]: 30.1 nM
apparent KD of MS2 coat protein [3]: 13.9 nM

AAUUCCUAACAUGAGGAUCACCCAUGUGAAGGAGCGCGGAAUAACGCAGGUAGGUCGCACAUGGAACCGCUGCGAUAGCAGCAAA [MAT - Exclusion Arginine A - Mod of Eli - D29]
apparent KD of MS2 coat protein (input ligand: arginine 13.2 mM): 8.66 nM
apparent KD of MS2 coat protein (input ligand: none): 14.4 nM
apparent KD of MS2 coat protein [1]: 13.3 nM
apparent KD of MS2 coat protein [2]: 14 nM
apparent KD of MS2 coat protein [3]: 12.5 nM
